How the values were obtained:
[1] = substrate: CCCC(=O)Oc1ccc2c(c1)Oc1cc(OC(=O)CCC)ccc1C21OC(=O)c2ccccc21; test: cells, lysate or membranes; assay type: cell-based, Archaeoglobus fulgidus; settings: bulk reaction; enzyme preparation not told in main text (AFEST displayed on E. coli in the parallel droplet assay)
[2] = substrate: CCCC(=O)Oc1ccc([N+](=O)[O-])cc1; test: hydrolysis kinetics; assay type: biochemical, Archaeoglobus fulgidus; settings: 37°C
From the text: hydrolysis kinetics on AFEST

Protein	Km [1]	Km [2]	kcat [2]	kcat/Km [2]
AFEST (Archaeoglobus fulgidus DSM 4304) (protein, pET-28a(+) in E. coli BL21-CodonPlus(DE3), Ni-NTA purified; 5' primer starts … (MLDMPI)) MLDMPIDPVYYQLAEYFDSLPKFDQFSSAREYREAINRIYEERNRQLSQHERVERVEDRTIKGRNGDIRVRVYQQKPDSPVLVYYHGGGFVICSIESHDALCRRIARLSNSTVVSVDYRLAPEHKFPAAVYDCYDATKWVAENAEELRIDPSKIFVGGDSAGGNLAAAVSIMARDSGEDFIKHQILIYPVVNFVAPTPSLLEFGEGLWILDQKIMSWFSEQYFSREEDKFNPLASVIFADLENLPPALIITAEYDPLRDEGEVFGQMLRRAGVEASIVRYRGVLHGFINYYPVLKAARDAINQIAALLVFD	240 µM	22.47 µM	135 s⁻¹	6.03e+06 M⁻¹ s⁻¹
AFEST (Archaeoglobus fulgidus DSM 4304; V293E) (protein, pET-28a(+) in E. coli BL21-CodonPlus(DE3), Ni-NTA purified; 5' primer starts … (MLDMPI)) MLDMPIDPVYYQLAEYFDSLPKFDQFSSAREYREAINRIYEERNRQLSQHERVERVEDRTIKGRNGDIRVRVYQQKPDSPVLVYYHGGGFVICSIESHDALCRRIARLSNSTVVSVDYRLAPEHKFPAAVYDCYDATKWVAENAEELRIDPSKIFVGGDSAGGNLAAAVSIMARDSGEDFIKHQILIYPVVNFVAPTPSLLEFGEGLWILDQKIMSWFSEQYFSREEDKFNPLASVIFADLENLPPALIITAEYDPLRDEGEVFGQMLRRAGVEASIVRYRGVLHGFINYYPELKAARDAINQIAALLVFD		12.13 µM	138 s⁻¹	1.14e+07 M⁻¹ s⁻¹
AFEST (Archaeoglobus fulgidus DSM 4304; V293G) (protein, pET-28a(+) in E. coli BL21-CodonPlus(DE3), Ni-NTA purified; 5' primer starts … (MLDMPI)) MLDMPIDPVYYQLAEYFDSLPKFDQFSSAREYREAINRIYEERNRQLSQHERVERVEDRTIKGRNGDIRVRVYQQKPDSPVLVYYHGGGFVICSIESHDALCRRIARLSNSTVVSVDYRLAPEHKFPAAVYDCYDATKWVAENAEELRIDPSKIFVGGDSAGGNLAAAVSIMARDSGEDFIKHQILIYPVVNFVAPTPSLLEFGEGLWILDQKIMSWFSEQYFSREEDKFNPLASVIFADLENLPPALIITAEYDPLRDEGEVFGQMLRRAGVEASIVRYRGVLHGFINYYPGLKAARDAINQIAALLVFD		9.74 µM	118 s⁻¹	1.21e+07 M⁻¹ s⁻¹
AFEST (Archaeoglobus fulgidus DSM 4304; F287Y/S94G) (protein, pET-28a(+) in E. coli BL21-CodonPlus(DE3), Ni-NTA purified; 5' primer starts … (MLDMPI)) MLDMPIDPVYYQLAEYFDSLPKFDQFSSAREYREAINRIYEERNRQLSQHERVERVEDRTIKGRNGDIRVRVYQQKPDSPVLVYYHGGGFVICGIESHDALCRRIARLSNSTVVSVDYRLAPEHKFPAAVYDCYDATKWVAENAEELRIDPSKIFVGGDSAGGNLAAAVSIMARDSGEDFIKHQILIYPVVNFVAPTPSLLEFGEGLWILDQKIMSWFSEQYFSREEDKFNPLASVIFADLENLPPALIITAEYDPLRDEGEVFGQMLRRAGVEASIVRYRGVLHGYINYYPVLKAARDAINQIAALLVFD		15.42 µM	155 s⁻¹	1e+07 M⁻¹ s⁻¹
